Data from the supplement of paper PMC10126150.
± gives the standard deviation of the averaged measurements.

Tested on: ATP
Assay: switch fluorescence ratio, 500 uM ATP over buffer (Cy3 cluster intensity, sum of 5 cycles each) (fold (ratio)); higher = stronger signal-on switching upon ATP binding; sequences stand for … in TCGTCGGCAGCGTCAGATGTGTATAAGAGACAGTTTTTTTTTTTTTTTTTTTTTTTTT…TC
Settings: aptamer strand: ATP DNA aptamer (quencher-CACCTGGGGGAGTATTGCGGAGGAAGG + anchor), 100 nM annealed; ATP concentration: 500 uM
Outline: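 For every switch-domain sequence, the fluorescence ratio is the mean of per-cluster values, each being summed target-cycle Cy3 intensity over summed buffer-cycle Cy3 intensity. Clusters outside 100-1000 RFU were excluded. On a modified Illumina MiSeq flow-cell, the Cy3-labelled switching-strand clusters were annealed to 100 nM quencher-labelled ATP aptamer, imaged in selection buffer and then after 15 min with 500 uM ATP at 22 °C. Five such cycles were run, with NaOH stripping and re-annealing between them.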
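Also: ATP exposure 15 min at 22 °C before imaging.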

| Sequence | switch fluorescence ratio |
| --- | --- |
| TTTGGGCCGC | 1.06 ± 0.05 |
| TTATTCATGT | 0.984 ± 0.011 |
| ATCCCGTAGG | 0.9905 ± 0.0084 |
| GGAAGGGTTG | 1 ± 0.034 |
| TGGCGGGGGC | 1.02 ± 0.011 |
| TTTAGTGCAT | 1.03 ± 0.034 |
| AGGTGCTACG | 1.03 ± 0.012 |
| AGTCAAATGG | 0.996 ± 0.043 |
| GGGAAGCCGT | 1.14 ± 0.23 |
| CCGCGCTGCC | 2.71 ± 0.8 |
| GCGTAAAAGG | 0.974 ± 0.034 |
| AGCCCGCCGG | 1.03 ± 0.031 |
| TAATTTGAGT | 1 ± 0.014 |
| CCGGGGGGGG | 1.1 ± 0.17 |
| TTATATTAGC | 1 ± 0.054 |
| AAAGGACGGG | 1.017 ± 0.0031 |
| GCAACATTCT | 1.03 ± 0.022 |
| TTGGTGGGGG | 0.989 ± 0.023 |
| CGTGTACCGG | 1.01 ± 0.0092 |
| GAATATTCGC | 0.9958 ± 0.0032 |
| TCAATGGTAA | 0.97 ± 0.096 |
| TTTTTATTGT | 0.997 ± 0.035 |
| GTGTGTCCGG | 0.987 ± 0.026 |
| GGTTGTGGTT | 0.998 ± 0.031 |
| ATAGAAGGTG | 1.43 ± 0.025 |

| Sequence | switch fluorescence ratio |
| --- | --- |
| GAATGACCCG | 1.11 ± 0.012 |
| GCCAGAGAGT | 1.01 ± 0.012 |
| AATTGTGAGG | 1.01 ± 0.023 |
| AGGAAGGGGG | 0.992 ± 0.034 |
| GTTATTTTCC | 1.01 ± 0.071 |
| GTGGTTTTGA | 0.9832 ± 0.0064 |
| TTTGTTTTC | 1.02 ± 0.018 |
| TGAAGATCGC | 1.02 ± 0.018 |
| TTTGTAATGG | 1.08 ± 0.14 |
| AAACGATTTA | 1.018 ± 0.0055 |
| ATGCAGTCTA | 1.017 ± 0.005 |
| TTTATTCAAG | 0.988 ± 0.021 |
| TGCTGCCTAC | 2.38 ± 1.6 |
| CTAGCTGACC | 1.11 ± 0.046 |
| TTTAGGGGCC | 0.987 ± 0.021 |
| GGAGGGTGGT | 0.9906 ± 0.0019 |
| GATGCGTACG | 1 ± 0.055 |
| ATGTTTTCTC | 0.993 ± 0.013 |
| CAGTCGTCGA | 1.001 ± 0.0033 |
| TTTATTTAAC | 1.052 ± 0.01 |
| TTAAAATTAA | 0.975 ± 0.021 |
| GTGTGTTAAC | 0.9738 ± 0.0095 |
| ACGTGCCGGT | 0.99 ± 0.05 |
| GACTTTGGTG | 1.01 ± 0.026 |
| ATTTGTGAGG | 0.9782 ± 0.0093 |

| Sequence | switch fluorescence ratio |
| --- | --- |
| GGGTTGCACG | 0.9936 ± 0.0015 |
| CGTCGGGTGG | 0.9882 ± 0.0028 |
| GGTTTAGCGG | 0.9809 ± 0.0033 |
| GGGAAACGGG | 0.995 ± 0.011 |
| GGAGGGGCAC | 0.979 ± 0.036 |
| CGAGTCTGCC | 1.04 ± 0.075 |
| TATGATGTAA | 1.02 ± 0.049 |
| TGGGGTATTG | 0.974 ± 0.012 |
| AGTGATGTGG | 1 ± 0.024 |
| AAGTACGTTG | 1.12 ± 0.057 |
| GTCTGTGGGA | 0.9998 ± 0.0091 |
| AAAGCATAGG | 1.03 ± 0.015 |
| TTGTTGAGAT | 1.02 ± 0.035 |
| ATAGTGTGTT | 0.989 ± 0.021 |
| AGACGTAGTA | 1.03 ± 0.014 |
| TGGTATTTTA | 0.982 ± 0.028 |
| GCGGTTGCTG | 0.954 ± 0.04 |
| GAGAGTGACA | 1.01 ± 0.062 |
| GGCGTAAGCT | 1.012 ± 0.0095 |
| CGGCAGTTCG | 0.979 ± 0.014 |
| TTGCTTTTAA | 0.991 ± 0.013 |
| AGGCCGATGG | 0.983 ± 0.021 |
| CATCCGTCCG | 1.353 ± 0.0037 |
| GAGGGGTGCG | 1.01 ± 0.025 |
| CACTCATACT | 1.16 ± 0.029 |

| Sequence | switch fluorescence ratio |
| --- | --- |
| TCGGTTGGGA | 0.986 ± 0.038 |
| ATAGGGGGGT | 1.02 ± 0.018 |
| TCAGTAAGTT | 0.995 ± 0.021 |
| ATTAGGAAAG | 0.998 ± 0.028 |
| TGGAGGGGCT | 0.987 ± 0.046 |
| GGGGTTCACT | 1.01 ± 0.029 |
| TGATTGGTGG | 1.01 ± 0.041 |
| CTGAAAGGGT | 1.01 ± 0.011 |
| TTCGGTTAGT | 1 ± 0.012 |
| TAAAAGATGG | 1.02 ± 0.019 |
| CGGGCTGAAT | 0.987 ± 0.025 |
| AGGTTGAAGC | 0.993 ± 0.017 |
| CGAGGTAGAG | 1.01 ± 0.049 |
| TCTGGCGGGG | 1.21 ± 0.38 |
| AGGTCAAGAA | 1.07 ± 0.079 |
| TTAAAGGTAA | 1.018 ± 0.0094 |
| TATTTACGGG | 0.9931 ± 0.0065 |
| ATTTCGGTCA | 0.9919 ± 0.0066 |
| AAACGTGGTG | 1 ± 0.038 |
| GATGCATGTT | 0.9947 ± 0.0021 |
| GGCTACTGGA | 1.03 ± 0.095 |
| GGTTTCTGGG | 0.963 ± 0.017 |
| GAGACGTTGG | 0.985 ± 0.014 |
| ATCCGGCGAT | 1.35 ± 0.018 |
| TGGCAGAAGG | 1.06 ± 0.076 |

| Sequence | switch fluorescence ratio |
| --- | --- |
| AGTTTATTAC | 1.47 ± 0.68 |
| GGTTCGAAGT | 1.01 ± 0.048 |
| ATTGAATAGG | 1.0089 ± 0.0003 |
| CAGGAAGGAT | 0.994 ± 0.016 |
| GTGGTTCGGG | 0.975 ± 0.029 |
| TTTTGAATCG | 1.008 ± 0.0091 |
| TACGCATAAT | 1.37 ± 0.014 |
| TTGATGCAA | 1.07 ± 0.028 |
| CGAGGGGCCA | 1 ± 0.027 |
| GGGCTAGTGG | 1.02 ± 0.036 |
| CTAGGTTCTG | 1.015 ± 0.0043 |
| TTGGTTAAGA | 0.999 ± 0.04 |
| TGATGTTAGA | 1.003 ± 0.009 |
| TCTGGAGTT | 1.077 ± 0.005 |
| GGGTGGCAAG | 0.996 ± 0.03 |
| CAGGTTTCGG | 0.987 ± 0.022 |
| TGGTGAGTTT | 0.984 ± 0.019 |
| GGCAATTGGA | 1.01 ± 0.011 |
| TGTTAGTGTT | 1.03 ± 0.029 |
| GTTCACGGGA | 1 ± 0.058 |
| CGGGGGCTCC | 1.02 ± 0.021 |
| CGGCATTCAA | 0.9989 ± 0.0057 |
| ACAGGTGGAA | 1.235 ± 0.01 |
| ACGATTTTTA | 1 ± 0.013 |
| GATTGCATCG | 0.9937 ± 0.0013 |

| Sequence | switch fluorescence ratio |
| --- | --- |
| TGGAGTCCGG | 0.987 ± 0.036 |
| ATTATGGTTC | 1 ± 0.021 |
| GGGAAGGTCT | 0.994 ± 0.03 |
| ATAGTGGTTT | 1.02 ± 0.021 |
| GGGTATTTGT | 1 ± 0.03 |
| ACAGCTGGGG | 1.0159 ± 0.00055 |
| TTCCCAAATT | 1.19 ± 0.19 |
| ATGGGGGGGT | 0.999 ± 0.025 |
| TAATACCCCG | 1.06 ± 0.054 |
| TGAGTCACCT | 1.16 ± 0.037 |
| AAATTCGGGA | 0.9799 ± 0.0032 |
| ATCGTGTGTG | 0.991 ± 0.035 |
| GGCCAGGAGA | 1.04 ± 0.021 |
| AGGTTGAGGG | 0.984 ± 0.025 |
| TTTTTGTGGC | 0.985 ± 0.03 |
| TTGTGGAAGC | 1.01 ± 0.025 |
| GGGGTATTGG | 0.993 ± 0.035 |
| CGCTACTTGA | 1.027 ± 0.0082 |
| CGATTGTATG | 0.992 ± 0.054 |
| TTCTTTTTCA | 1.06 ± 0.067 |
| TTACTGCGGT | 1.014 ± 0.0034 |
| ACGGCACTCT | 1.55 ± 0.0028 |
| CAGTTTATGA | 0.971 ± 0.039 |
| ATAAATTTGT | 0.967 ± 0.019 |
| ACGATCAAGG | 1.13 ± 0.024 |

| Sequence | switch fluorescence ratio |
| --- | --- |
| CGTTTAGTGG | 0.9781 ± 0.0089 |
| TGGTCTTGTA | 1.04 ± 0.021 |
| ACTAGGGTTG | 0.993 ± 0.02 |
| GGTTTCCGT | 0.987 ± 0.038 |
| TTATTGAGTA | 1.005 ± 0.0048 |
| GGTGCTTATA | 1 ± 0.013 |
| ATTAGTCGCT | 0.978 ± 0.019 |
| TTGGGACGGT | 0.9972 ± 0.0076 |
| ACTCGTTTCG | 1 ± 0.013 |
| GGGGCGTCTG | 1.04 ± 0.06 |
| AAGGCGCGGG | 0.9891 ± 0.0081 |
| AATTTAGACG | 1.016 ± 0.0083 |
| TGCGTCGGCG | 1 ± 0.013 |
| GGGCGTGGTT | 0.965 ± 0.017 |
| TAAGGGGGTA | 0.992 ± 0.039 |
| TGTGTTGGTC | 1.036 ± 0.0032 |
| TCAATGTGCG | 1.013 ± 0.01 |
| CGGGCCTCCG | 1.152 ± 0.0046 |
| AATTTTTTT | 0.992 ± 0.01 |
| TTAAATCGTG | 1.01 ± 0.054 |
| CCAGGGGGAA | 1.09 ± 0.12 |
| TTGAATACCC | 1.052 ± 0.008 |
| CGTTAGTTTT | 0.9924 ± 0.0021 |
| AATTAGGTTT | 1 ± 0.035 |
| GAGTGGACGG | 0.998 ± 0.018 |

| Sequence | switch fluorescence ratio |
| --- | --- |
| GGATCGAGAC | 0.9755 ± 0.0034 |
| GTCTTTGTTA | 1.01 ± 0.022 |
| GGGTTGGTCG | 0.955 ± 0.016 |
| AGAGTTGGCT | 0.992 ± 0.021 |
| AAAGGGACGG | 0.9829 ± 0.0091 |
| AAGATAGTAC | 1.04 ± 0.024 |
| TAGAGGGGGC | 0.987 ± 0.025 |
| CGGGTGGGAT | 1.006 ± 0.0035 |
| TTTTCCTGGA | 1.03 ± 0.066 |
| CAAGAACGGT | 0.969 ± 0.0077 |
| TCGGCCTGCT | 1.01 ± 0.021 |
| GTTGCGCGTC | 1.03 ± 0.024 |
| TGTCTTTTTA | 0.995 ± 0.028 |
| TCATAAAACC | 1.09 ± 0.11 |
| ATTTTGATTT | 1 ± 0.028 |
| CAGTTAGCAG | 1.06 ± 0.025 |
| GACGGCTGCT | 1.01 ± 0.0042 |
| AATCGATTCC | 1.04 ± 0.034 |
| TTTTTTCGCT | 1.02 ± 0.047 |
| CGGGTTTTTG | 0.994 ± 0.03 |
| ATGGGTAGTT | 0.977 ± 0.022 |
| ATATGAGGTT | 0.977 ± 0.023 |
| TTTCGAAGGT | 0.987 ± 0.019 |
| ACTCGGTTTG | 0.949 ± 0.067 |
| TATGCAATCA | 1.03 ± 0.02 |
